{
  "source": "patent US20240197828A1",
  "about": "“Chimeric molecule to treat sepsis and other inflammatory conditions” (THE FEINSTEIN INSTITUTES FOR MEDICAL RESEARCH, priority 2022, published 2024)",
  "molecules": {"B1": {"name": "milk fat globule-epidermal growth factor—factor VIII (protein, listed as Mus musculus)", "chain": "MQVSRVLAALCGMLLCASGLFAASGDFCDSSLCLNGGTCLTGQDNDIYCLCPEGFTGLVCNETERGPCSPNPCYNDAKCLVTLDTQRGDIFTEYICQCPVGYSGIHCETETNYYNLDGEYMFTTAVPNTAVPTPAPTPDLSNNLASRCSTQLGMEGGAIADSQISASSVYMGFMGLQRWGPELARLYRTGIVNAWTASNYDSKPWIQVNLLRKMRVSGVMTQGASRAGRAEYLKTFKVAYSLDGRKFEFIQDESGGDKEFLGNLDNNSLKVNMFNPTLEAQYIKLYPVSCHRGCTLRFELLGCELHGCSEPLGLKNNTIPDSQMSASSSYKTWNLRAFGWYPHLGRLDNQGKINAWTAQSNSAKEWLQVDLGTQRQVTGIITQGARDFGHIQYVASYKVAHSDDGVQWTVYEEQGSSKVFQGNLDNNSHKKNIFEKPFMARYVRVLPVSWHNRITLRLELLGC"}},
  "key": {"[1]": {"tested_on": "murine peritoneal cavity (PerC) macrophages", "experiment": "eCIRP-induced cytokine release in peritoneal cavity macrophages", "format": "cell-based, mouse", "settings": "WT PerC macrophages, eCIRP treatment", "description": "Murine peritoneal cavity (PerC) macrophages were isolated from adult, WT mice and MFG-E8“ ” mice. Briefly, mice were euthanized using CO2 asphyxiation. Peritoneal fluid and cells were isolated using peritoneal lavage by washing ice-cold Ca^+2 and Mg^+2 free Hank's Balanced Salt Solution (HBSS) with 2% fetal bovine serum (FBS, Solon, Ohio). Total PerC macrophages were isolated by centrifugation at 400 g for 10 minutes at 4° C. After centrifugation, the cell pellet was suspended in culture media containing RPMI 1640 (Invitrogen) supplemented with 25 mM HEPES, 2 mM glutamine, 10% FBS, penicillin (100 IU/mL) and streptomycin (100 IU/mL). PerC macrophages were allowed to adhere in 6-well plates for 4 hours in humidified incubator at 37 °C. […] Adhered PerC macrophages were then mechanically detached from the plate and counted. […]\nThe mouse macrophage cell culture supernatants were analyzed for cytokine levels using ELISA kits (BD Biosciences, CA). […] TNF-α and IL-6 levels were measured in cell supernatants by ELISA in accordance with respective manufacturers' instructions (BD Biosciences, CA). Blood was collected, centrifuged at 4,000 RPM for 10 minutes, and sera was separated and analyzed for cytokine levels using ELISA kits (BD Biosciences, CA). TNF-α and IL-6 levels in the serum were measured by ELISA in accordance with respective manufacturers' instructions."}, "[2]": {"tested_on": "RAW264.7 macrophages", "experiment": "Intracellular uptake of FITC-rmCIRP by macrophages (flow cytometry, confocal microscopy)", "format": "cell-based, mouse", "description": "FIG. 3. Effects of MOP peptides MOP-3, MOP-8 and MOP-14 on eCIRP. Flow cytometry experiment whereby RAW264.7 macrophages were treated for 1 hour according to respective group: PBS (volume-equivalent), FITC-rmCIRP (1 μg/mL), or a mixture of FITC-rmCIRP (1 μg/mL) with each respective peptide (10 μg/mL) after co-incubating for 30 minutes. Intracellular FITC-rmCIRP was analyzed by flow cytometry. Median fluorescence intensity (MFI) reported as percentage relative to PBS-treated RAW264.7 cells. Data from two independent experiments are expressed as mean±SEM and compared by one-way ANOVA and SNK test. *p<0.05 vs. PBS, #p<0.05 vs. eCIRP.\nComputational modeling was used to determine the likely domain of MFG-E8's binding to eCIRP. The known amino acid (AA) sequence of this domain was used to develop and test potential therapeutic peptides. An MFG-E8 derived oligopeptide, MOP3, was developed based on 15 AA from MFG-E8 discoidin 2 domain (mimicking MFG-E8's C-terminal) and tagged with the 3 AA, RGD, (mimicking MFG-E8's binding capacity for the integrin receptor at the N-terminal). Binding of MOP3 to CIRP was quantified using Surface Plasmon Resonance (SPR) analysis. Macrophages (RAW264.7 cells) were treated with FITC-recombinant mouse (rm)-CIRP or co-incubated MOP3 and FITC-rmCIRP with and without a. Br-integrin Ab. After 1 h, cells were fixed and analyzed for intracellular FITC-rmCIRP by flow cytometry. Macrophages were stimulated with rmCIRP or co-incubated mixture of MOP3 and rmCIRP. After 4 h, cell culture supernatants were analyzed for inflammatory cytokine, TNFα.\nMouse macrophage cell line, RAW264.7 cells were obtained from American Type Culture Collection (ATCC) and cultured in DMEM media with 10% FBS, 1% penicillin and streptomycin, and 1% glutamine. Cells were kept in 37° C. incubator under humidified conditions containing 5% CO2.\nrmCIRP was labeled using a FITC Conjugation Kit (Abcam, ab188285), and rmMFG-E8 was labeled using Alexa Fluor Conjugation Kit (Abcam, ab269821), both according to respective manufacturer's instructions.\nIn order to visualize cellular uptake, we initially utilized TRITC-BSA as an internal probe, as BSA is taken up into cells primarily by endocytosis and retained intracellularly after fixation (27, 28). For further visualization of intracellular localization, we utilized LAMP1 primary antibody (as it is distributed among endolysosomal organelles and serves as a marker for lysosomal compartments) (29), and utilized lysotracker in live cell experiments (as it allows for imaging of dynamics of lysosome vesicle movements) (30). […] Images were quantified and analyzed using Image J, FIJI.(31) Flow cytometry. […]"}},
  "data": [
    {"molecule": "B1", "values": [
      {"measurement": "IL-6 levels in cell supernatants", "setting": "[1]", "value": "reduced levels"},
      {"measurement": "TNFα levels in cell supernatants", "setting": "[1]", "value": "reduced levels"},
      {"measurement": "FITC-eCIRP uptake (confocal fluorescence microscopy)", "setting": "[2]; RAW264.7, 4 hours, vs FITC-eCIRP alone", "value": "marked increase of FITC-eCIRP uptake"},
      {"measurement": "intracellular FITC-rmCIRP uptake (flow cytometry)", "setting": "[2]; RAW264.7, FITC-rmCIRP 1 μg/mL co-incubated with test substance (peptide 10 μg/mL), 1 hour, vs FITC-rmCIRP alone", "value": "enhanced internalization of FITC-eCIRP"},
      {"measurement": "intracellular FITC-eCIRP with αvβ3-integrin neutralizing antibody (confocal fluorescence microscopy)", "setting": "[2]; RAW264.7, vs IgG isotype control", "value": "remarkably reduced"},
      {"measurement": "intracellular FITC-rmCIRP uptake with αvβ3-integrin blocking antibody (flow cytometry)", "setting": "[2]; RAW264.7, αvβ3-integrin antibody 0.5 μg/mL", "value": "significantly reduced"}
    ]}
  ]
}
